Reference: article PMC9292107

Target: caveolin-3 (Cav3) (mouse (endogenous in cardiomyocytes)) (UniProt P51637)
Test: co-IP; endogenous proteins in extracts of mouse cardiomyocytes / heart (WT; for actin-Cav3 also SM22α KO); IgG as negative control; Western blot

UniProt P51637, sequence (P51637 whole entry): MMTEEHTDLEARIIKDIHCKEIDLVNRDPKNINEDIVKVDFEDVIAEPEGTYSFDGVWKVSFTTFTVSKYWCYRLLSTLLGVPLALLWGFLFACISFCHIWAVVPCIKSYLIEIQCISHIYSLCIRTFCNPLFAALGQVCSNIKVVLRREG

α-actin (from UniProt P68033 1-377) (natural protein)
reduction of the co-precipitate in SM22α KO against WT cardiomyocytes: 34%
